According to patent publication US20240392003A1 (NUMAB THERAPEUTICS, published 2024):
Where two headings read alike, the source gives them in different places.

How the values were obtained:
[1] = target: T1, human ROR1 expressed on cells (human, UniProt Q01973 30-937); assay: flow cytometry, MDA-MB-231 cells, 1 mg/ml hSA
T1 construct: whole, on cells; One molecule for cell-surface ROR1 on all cell lines; the cell line is named under assay; also called hROR1; plasma membrane human ROR1
Method: After incubation at 4° C. for 1 h in presence of 1 mg/ml of human serum albumin (hSA), plates were washed and incubated with specific detection antibodies.
The binding of MATCH4 molecules to plasma membrane-based human ROR1 was assessed by flow cytometry. The calculated EC₅₀, rel.

[2] = target: T2, recombinant human CD3 epsilon extra-cellular domain protein (His-Tag, SinoBiological) (human, UniProt P07766 23-126); assay: SPR; hCD3ε immobilized, two-state fit (Ka1)
T2 construct: extracellular domain; Bought; also called hCD3ε; human CD3ε; not shown: His tag

[3] = target: T2, recombinant human CD3 epsilon …; assay: SPR; hCD3ε immobilized, two-state fit (kd1)
[4] = target: T3, human ROR1 (Peprotech 160-054) (human, UniProt Q01973 30-406); assay: SPR; MATCH4 captured, hROR1 analyte (Affinity)
T3 construct: Bought, used as analyte; also called hROR1; recombinant human ROR1 protein

[5] = target: T4, recombinant human ROR1 protein (Fc-Tag, Acro Biosystems RO1-H5250) (human, UniProt Q01973 30-406); assay: SPR; hROR1-Fc immobilized (Avidity)
T4 construct: Bought; also called hROR1; recombinant human ROR1 ECD; not shown: Fc tag

[6] = target: T1, human ROR1 expressed on cells; assay: cell-based or functional assay
[7] = target: T1, human ROR1 expressed on cells; assay: flow cytometry, JIMT-1 cells (ROR1-positive)
[8] = target: T1, human ROR1 expressed on cells; assay: cell-based or functional assay; remark: listed apart in the source
[9] = target: T2, recombinant human CD3 epsilon …; assay: SPR; hCD3ε immobilized, two-state fit
Method: Binding kinetics (including affinity) of the four MATCH4 molecules to recombinant human CD3 epsilon extra-cellular domain protein (hCD3ε; His-Tag, SinoBiological) were determined by SPR analysis on a T200 device (Biacore, Cytiva). Recombinant hCD3ε molecules were covalently immobilized to a carboxymethylated dextran surface (CM5 sensorchip; Biacore, Cytiva) and a titration series of each MATCH4 molecule was injected as analyte. After each analyte injection-cycle, every flow channel on the sensor chip was regenerated (Glycine, pH 2.0 and 3 M MgCl₂), and a new concentration of MATCH4 molecule was injected. […] The apparent dissociation (kd1) and association (kₐ₁) rate constants, the second reaction constants (kₐ₂ and kd2) and the apparent dissociation equilibrium constant (KD) were calculated with the Biacore analysis software (Biacore Evaluation software Version 3.2, Cytiva) using a two-state binding model, and the quality of the fits was monitored based on relative Chi2. The binding level was calculated as the maximum stability binding achieved normalized to the theoretical Rmax.

[10] = target: T1, human ROR1 expressed on cells; assay: flow cytometry, MDA-MB-231 cells, 1 mg/ml hSA; remark: listed apart in the source
[11] = target: T1, human ROR1 expressed on cells; assay: cell-based or functional assay; remark: listed apart in the source

B1: PRO2589 (bispecific antibody)
chain 1: DVQMTQSPSSLSASVGDRVTITCRASENIYSGLAWYQQKPGKPPKLLIYRASTLASGVSSRFSGSGSGTDFTLTISSLQPEDFATYYCQGGYYSSSSTYIAFGTGTKVTVLGGGGGSGGGGSGGGGSGGGGSQSQVVESGGGLVQPGGSLRLSCAVSGFDLSSYAVSWVRQAPGKGLEWIGIIYPRANTYYASWAKGRFTISKDNSKNTVYLQMNSLRAEDTAVYFCARDRYDSGAYLYTTYFNLWGQGTLVTVSSGGGGSGGGGSAFELTQSPSSLSASVGDRVTITCQASESINSRLAWYQQKPGQPPKLLIYDASDLTSGVPSRFSGSGSGTDFTLTISSLQPEDFATYYCQGYGGSSTTTFGCGTKLTVLGGGSGGSDIQMTQSPSSLSASVGDRVTITCQSSQSVFSNNYLAWFQQKPGQSPKRLIYSASTLASGVPSRFSGSGSGTDFTLTISSLQPEDFATYYCLGSYACSSADCYVFGTGTKVTVLG
chain 2: DVQMTQSPSSLSASVGDRVTITCRASENIYSGLAWYQQKPGKPPKLLIYRASTLASGVSSRFSGSGSGTDFTLTISSLQPEDFATYYCQGGYYSSSSTYIAFGTGTKVTVLGGGGGSGGGGSGGGGSGGGGSQSQVVESGGGLVQPGGSLRLSCAVSGFDLSSYAVSWVRQAPGKGLEWIGIIYPRANTYYASWAKGRFTISKDNSKNTVYLQMNSLRAEDTAVYFCARDRYDSGAYLYTTYFNLWGQGTLVTVSSGGGGSGGGGSEVQLVESGGGLVQPGGSLRLSCAASGFSLSSYDMSWVRQAPGKGLAWIGASYASGPTYYASWAKGRFTISRDNSKNTVYLQMNSLRAEDTATYFCARGGWTGTSHSNIWGQGTLVTVSSGGGSGGGSGGGSGEVQLVESGGGLVQPGGSLRLSCAASGFSLSSYAMNWVRQAPGKCLEWIGHINAGDIAYYATWAKGRFTISRDNSKNTVYLQMNSLRAEDTAVYFCARGAGGFSTGPFKLWGQGTLVTVSS
notes: heterodimeric MATCH4, bivalent for ROR1, monovalent for CD3 and hSA; also called MATCH4 with 55-38-D07-sc02 / 19-04-A10-sc06 / 28-21-D09-sc04 / 55-38-D07-sc02
[1]
  EC50: 1.55 nM
  Rel. maximum binding (MFIMATCH4/MFIPRO2213): 2.67
  rel. EC50 (EC50, PRO2213/EC50, MATCH4): 0.45
[2]
  kon: 440000 M⁻¹ s⁻¹
[3]
  koff: 0.0065 s⁻¹
[4]
  Kd: 1.2 nM
  koff: 0.00011 s⁻¹
  kon: 94000 M⁻¹ s⁻¹
[5]
  Kd: 0.093 nM
  koff: 7.02e-05 s⁻¹
  kon: 755000 M⁻¹ s⁻¹
[6]
  Avg. % max. CD8 T cell act. (JIMT-1): 23.8%
  Avg. % max. CD8 T cell act. (MDA-MB-231): 68.5%
  Avg. % max. CD8 T cell act. (SKOV3): 66.7%
  Avg. EC50 (nM) CD8 T cell act. (JIMT-1): 0.08 nM
  Avg. EC50 (nM) CD8 T cell act. (MDA-MB-231): 0.012 nM
  Avg. EC50 (nM) CD8 T cell act. (SKOV3): 0.032 nM
[7]
  EC50 (read off the curve): 1 to 2 nM
[8]
  Avg. % max. CD4 T cell act. (JIMT-1): 36.7%
  Avg. % max. CD4 T cell act. (MDA-MB-231): 79%
  Avg. % max. CD4 T cell act. (SKOV3): 80.3%
  Avg. EC50 (nM) CD4 T cell act. (JIMT-1): 0.09 nM
  Avg. EC50 (nM) CD4 T cell act. (MDA-MB-231): 0.006 nM
  Avg. EC50 (nM) CD4 T cell act. (SKOV3): 0.02 nM
[9]
  Ka2: 0.0063 s⁻¹
  Kd: 5.9 nM
  Kd2: 0.0042 s⁻¹
[10]
  fold better rel. EC50 than scMATCH3 PRO2507: ~10 fold
[11]
  Avg. % max. lysis (JIMT-1): 41%
  Avg. % max. lysis (MDA-MB-231): 56.9%
  Avg. % max. lysis (SKOV3): 54.6%
  Avg. EC50 (nM) CD8 T cell act. (MDA-MB-231): 0.012 nM
  Avg. EC50 (nM) CD8 T cell act. (SKOV3): 0.031 nM
  Avg. EC50 (nM) Cytotoxicity (JIMT-1): 0.1 nM
  Avg. EC50 (nM) Cytotoxicity (MDA-MB-231): 0.015 nM
  Avg. EC50 (nM) Cytotoxicity (SKOV3): 0.043 nM
